Biological target: the molecule itself
Test: crystal structure; sitting-drop vapor diffusion, 16% PEG 3350, 0.2 M sodium malonate, 0.1 M Bis-Tris propane pH 8.5, 10% ethylene glycol, 1 mM DTT, 18°C; in complex with glucose and G6P; the dimer is in the asymmetric unit

B1: Δ16 variant of the wild-type human hexokinase 2 (enzyme, UniProt P52789 17-917, looked up)
chain: DQVQKVDQYLYHMRLSDETLLEISKRFRKEMEKGLGATTHPTAAVKMLPTFVRSTPDGTEHGEFLALDLGGTNFRVLWVKVTDNGLQKVEMENQIYAIPEDIMRGSGTQLFDHIAECLANFMDKLQIKDKKLPLGFTFSFPCHQTKLDESFLVSWTKGFKSSGVEGRDVVALIRKAIQRRGDFDIDIVAVVNDTVGTMMTCGYDDHNCEIGLIVGTGSNACYMEEMRHIDMVEGDEGRMCINMEWGAFGDDGSLNDIRTEFDQEIDMGSLNPGKQLFEKMISGMYMGELVRLILVKMAKEELLFGGKLSPELLNTGRFETKDISDIEGEKDGIRKAREVLMRLGLDPTQEDCVATHRICQIVSTRSASLCAATLAAVLQRIKENKGEERLRSTIGVDGSVYKKHPHFAKRLHKTVRRLVPGCDVRFLRSEDGSGKGAAMVTAVAYRLADQHRARQKTLEHLQLSHDQLLEVKRRMKVEMERGLSKETHASAPVKMLPTYVCATPDGTEKGDFLALDLGGTNFRVLLVRVRNGKWGGVEMHNKIYAIPQEVMHGTGDELFDHIVQCIADFLEYMGMKGVSLPLGFTFSFPCQQNSLDESILLKWTKGFKASGCEGEDVVTLLKEAIHRREEFDLDVVAVVNDTVGTMMTCGFEDPHCEVGLIVGTGSNACYMEEMRNVELVEGEEGRMCVNMEWGAFGDNGCLDDFRTEFDVAVDELSLNPGKQRFEKMISGMYLGEIVRNILIDFTKRGLLFRGRISERLKTRGIFETKFLSQIESDCLALLQVRAILQHLGLESTCDDSIIVKEVCTVVARRAAQLCGAGMAAVVDRIRENRGLDALKVTVGVDGTLYKLHPHFAKVMHETVKDLAPKCDVSFLQSEDGSGKGAALITAVACRIREAGQR
notes: wild type; Crystallised in complex with glucose and glucose-6-phosphate; also called Δ16-HK2; HK2; source: E. coli, Champion pET SUMO expression system, purified (nickel-chelating resin, Superdex 200)
B1: binds.

— PMC5803496, “The catalytic inactivation of the N-half of human hexokinase 2 and structural and biochemical characterization of its mitochondrial conformation” (Bioscience Reports, 2018)
